System: MS2 coat protein
Experiment: apparent KD of MS2 coat protein; higher = weaker reporter binding
Conditions: Eterna round: R107
Protocol: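 RNA-MaP round R107: designed RNA switches with theophylline, tryptophan, arginine or FMN aptamers are transcribed on-chip within common flanks. They are titrated with SNAP-549-labelled MS2 coat protein in RNA-MaP buffer (100 mM Tris pH 7.5, 80 mM KCl, 4 mM MgCl2), without ligand or with the indicated ligand. Median apparent KD per design.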

[1] = input ligand: theophylline 20 uM
[2] = input ligand: theophylline 2 mM
[3] = input ligand: tryptophan 2.4 mM

Row | Sequence | apparent KD of MS2 coat protein (input ligand: arginine 13.2 mM) [nM] | apparent KD of MS2 coat protein (input ligand: none) [nM] | apparent KD of MS2 coat protein [1] [nM] | apparent KD of MS2 coat protein [2] [nM] | apparent KD of MS2 coat protein [3] [nM]
1 | ACAUGAGGAUCACCCAUGUACAUGAGGGAAGGAGCGGUACAUGAGCCAGGUAGGUCGCCCAUGAGCAUCAGGCAUGUACAUCAGC [kokmmullin] | 47.6 | 99.5 | 97.3 | 105 | 56.6
2 | ACAUGAGGAUCACCCAUGUAUUACCGGGAAGGAGCGGCCGCAAGGCCAGGUAGGUCGCUCGGUGUCGUGCUGUAAAGCACGACAA [#1 Same State - Arginine A Attempt #29 (HarryS)] | 11.9 | 10.2 | 16.7 | 11.5 | 9.61
3 | ACAUGAGGAUCACCCAUGUAUUCAUCAGAAGGAGCGUGGAAUAACACAGGUAGGUCGCUGAUUAUUUGUUAAAUAAAUUCGUGUA [JR_Nu_SSArginiA_Sub023] | 19.3 | 16.1 | 19.1 | 16 | 16.4
4 | ACAUGAGGAUCACCCAUGUCAAGGCACGAUACCAGCUGAUCCGGUGGCCCUUGGCAGCGUCACGUUUGGUCCCGCGGAUGACACG [p'pmullin] | 32.1 | – | 139 | – | 106
5 | ACAUGAGGAUCACCCAUGUUAAGCAGGGUGCGAGGACCGGUACGGCCGCCACUCGGACAUUAUUACGAGUGAAUGGUAACGAUGU [#14 Exclusion Tryptophan A] | 23.3 | 18.2 | 29.8 | 24.5 | 21.7
6 | ACAUGAGGAUCACCCAUGUUCCUCAUUGAUACCAGUGAAUUUAGACGCCCUUGGCAGCGAGUUUUUUUAGAAGAAGUUUUUUUUU [6.F] | 158 | – | 659 | – | 929
7 | ACAUGAGGAUCACCCAUGUUCCUCAUUGAUACCAGUGAAUUUAGACGCCCUUGGCAGCGAGUUUUUUUAUAAGAAGUUUUUUUUU [6.G] | 280 | – | 659 | – | 900
8 | ACAUGAGGAUGGGAUACCAGAUACAUGAGGAUCACCCAUACAUGAGGAUCACCCAUGUCCGUCCCUUGGCAGCCCAACAUGAGGA [Exclusion Theophylline B] | 77.4 | – | 153 | – | 150
9 | ACAUGAGUGGAUAAUAAAUAAGAAGGCGAAGGAGCGUGAAGAAUCACAGGUAGGUCGCGCAAAAUACAUGAGGAUCACCCAUGUU [JR_Nu_ExcArginiA_Sub031] | 22.5 | 27.6 | 35.3 | 29.8 | 25.9
10 | ACAUGUUGGUGGUAUCUACGAAGGCGGAAACGAGGACCGGUACGGCCGCCACUCGGCGACAUGAGGAUCACCCAUGUGGUUAAGA [Exclusion - Tryptophan A (Freestyle 6)] | 21.5 | – | 118 | 131 | –
11 | ACAUUGCGCUCGGCCGCCACUGCCUUAUGAUUAUAAGGAUUAAUGAACAUGAGGAUCACCCAUGUCAGGACCGGGAGCGAACCAU [SSTryp B #6] | 11.4 | – | 16 | 14.1 | –
12 | ACAUUUAACUGAAGGAGCGUGAUAUUUACAUGAGGAUCACCCAUGUCUAUCAUGAGAUAUUCACAGGUAGGUCGCAGACUAAUGA [JR_ExcArginiB_Sub005] | 38.9 | 26.7 | 40.9 | 46.9 | 29.4
13 | ACCAUGUAAUCAGAUACCAGACAUCUUUUAAAUCAUAUUACAUGAGGAUCACCCAUGUUGGUCCCUUGGCAGCUGAAAUAUUUCA [JR_Nu_SSTheophyB_Sub025] | 144 | – | 351 | – | 529
14 | ACCGAAAGCUCACAUGAGGAUCACCCAUGUCGAGGACCGGUACGGCCGCCACUCGGCAAAUAUAAGGGUGGACGCGUCUCUGCGU [Soramasoso] | 35.4 | – | 58.8 | 62.1 | –
15 | ACCGAGGCAAUGGAUACCAGUGCGCCACAAUCGUGCUUCAACAUGAGGAUCACCCAUGUGCACCCUUGGCAGCCAACGGGCUCAU [theeternabot_exclusion_MS2_Theo_B_19] | 15 | – | 25.3 | – | 19.9
16 | ACCGCAUCCGUAUAGGAUGCGGCCCAUGAAGGAGCGUGGGAAACCACAGGUAGGUCGCAUGGAUUACAUGAGGAUCACCCAUGUG [Skyfall] | 104 | 400 | 378 | 706 | 408
